Drawing on US20230272117A1 (published 2023), this text covers Kd for 15 molecules.

Assay [1] concerns the target T1, human ATP Binding Cassette Subfamily C Member 1 (ABCC1) (UniProt P33527 1-1531). Description: FACS cell binding.
Assay [2] addresses T2, cynomolgus monkey ABCC1 (UniProt Q864R9 1-1531). Description: FACS cell binding.
Assay [3] addresses T2, cynomolgus monkey ABCC1. Description: FACS titration on C6-cC1 cells; C6 cells.
Assay [4] concerns the target T2, cynomolgus monkey ABCC1. Description: FACS titration on C6-cC1 cells.
The target of assay [5] is T1, human ATP Binding Cassette Subfamily C …. Description: FACS titration on C6-hC1 cells.
For assay [6] the target is unchanged. Description: FACS titration on C6 cells.
The target in assay [7] is T2, cynomolgus monkey ABCC1. Description: FACS titration on C6 cells.
Assay [8] has as its target T1, human ATP Binding Cassette Subfamily C …. Description: FACS titration on C6 cells. The source holds these as a separate data set.
Assay [9] has as its target T2, cynomolgus monkey ABCC1. Description: FACS titration on C6-cC1 cells. This is another data set of the same source.
Assay [10] concerns the target T1, human ATP Binding Cassette Subfamily C …. Description: FACS titration on C6-hC1 cells. The source holds these as a separate data set.
Assay [11] addresses T2, cynomolgus monkey ABCC1. Description: FACS titration on C6 cells; C6 cells.
Assay [12] has as its target T1, human ATP Binding Cassette Subfamily C …. Description: FACS titration on H69AR cells.
The target is the same in assay [13]. Description: FACS cell binding. This is another data set of the same source.
Assay [14] has as its target T2, cynomolgus monkey ABCC1. Description: FACS cell binding. This is another data set of the same source.

T2 sequence (Q864R9 whole entry): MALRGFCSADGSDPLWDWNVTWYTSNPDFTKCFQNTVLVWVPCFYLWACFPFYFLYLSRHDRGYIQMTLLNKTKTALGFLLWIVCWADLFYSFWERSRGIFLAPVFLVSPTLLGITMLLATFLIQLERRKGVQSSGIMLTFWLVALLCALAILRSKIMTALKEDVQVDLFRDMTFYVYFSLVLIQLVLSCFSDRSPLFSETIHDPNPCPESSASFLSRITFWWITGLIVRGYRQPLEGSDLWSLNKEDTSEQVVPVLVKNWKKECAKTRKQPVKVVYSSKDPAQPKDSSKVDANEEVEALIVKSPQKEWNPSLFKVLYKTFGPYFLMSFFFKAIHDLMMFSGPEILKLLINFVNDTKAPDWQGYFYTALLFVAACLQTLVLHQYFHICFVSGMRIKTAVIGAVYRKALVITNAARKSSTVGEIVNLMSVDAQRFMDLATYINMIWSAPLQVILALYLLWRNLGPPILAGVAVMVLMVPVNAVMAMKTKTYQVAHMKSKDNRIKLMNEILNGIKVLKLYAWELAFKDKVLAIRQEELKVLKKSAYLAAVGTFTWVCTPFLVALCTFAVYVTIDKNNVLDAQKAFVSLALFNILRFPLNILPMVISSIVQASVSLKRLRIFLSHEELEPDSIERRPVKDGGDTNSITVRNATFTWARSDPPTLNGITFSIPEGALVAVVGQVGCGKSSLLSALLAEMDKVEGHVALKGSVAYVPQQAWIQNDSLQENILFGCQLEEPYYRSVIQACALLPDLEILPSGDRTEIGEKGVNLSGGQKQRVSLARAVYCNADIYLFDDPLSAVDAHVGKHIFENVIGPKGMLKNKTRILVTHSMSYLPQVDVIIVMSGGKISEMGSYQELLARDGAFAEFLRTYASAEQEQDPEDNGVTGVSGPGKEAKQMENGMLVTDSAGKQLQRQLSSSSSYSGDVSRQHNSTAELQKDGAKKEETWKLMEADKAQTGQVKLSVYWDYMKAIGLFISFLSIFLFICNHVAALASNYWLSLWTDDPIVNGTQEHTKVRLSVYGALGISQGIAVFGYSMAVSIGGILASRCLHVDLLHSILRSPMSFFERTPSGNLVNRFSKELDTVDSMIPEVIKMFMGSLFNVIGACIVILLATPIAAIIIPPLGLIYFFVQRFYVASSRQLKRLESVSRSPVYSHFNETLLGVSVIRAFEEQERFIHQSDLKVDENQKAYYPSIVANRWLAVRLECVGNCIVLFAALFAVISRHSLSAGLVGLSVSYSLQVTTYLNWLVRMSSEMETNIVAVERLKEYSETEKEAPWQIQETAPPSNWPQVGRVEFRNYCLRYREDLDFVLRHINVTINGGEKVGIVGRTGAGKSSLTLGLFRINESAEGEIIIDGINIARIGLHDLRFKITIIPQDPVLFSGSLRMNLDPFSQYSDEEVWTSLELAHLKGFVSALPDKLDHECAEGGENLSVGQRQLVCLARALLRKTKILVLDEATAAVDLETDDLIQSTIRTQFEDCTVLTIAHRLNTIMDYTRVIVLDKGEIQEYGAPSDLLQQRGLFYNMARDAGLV

B1: C1.861.hu41 (antibody, V domains shown)
VH: EVQLQESGPGLVKPSETLSLTCTVSGFSLTSSGVTWVRQPPGKGLEWIAAISSGGNIYYNSAVKSRLTISRDTSKNQVSLKLSSVTAADTAVYYCTRARGTTTAYVMDAWGQGTTVTVSS
VL: DVQLTQSPSSLSASVGDRVTITCKSSQSLLYSGNQKNYLAWYQQKPGKSPKLLIYWASTRQSGVPSRFSGSGSGTDFTLTISSLQPEDVATYYCQQYYDVLMNMFGGGTKLEIK
Regarding B1, the Kd was found to be 0.156 µM in [1] and 0.064 µM in [2].

B2: C1.861.hu21 (antibody, V domains shown)
VH: EVQLVESGGGLIQPGGSLRLSCAVSGFSLTSNGVTWVRQPPGKGLEWIAAISSGGNIYYNSAVKSRLTISRDTSKNTVYLQMNSLRAEDTAVYFCTRARGTTTAYVMDAWGQGTTVTVSS
VL: DVQLTQSPSSLSASVGDRVTITCKSSQSLLYSGNQKNYLAWYQQKPGKSPKLLIYWASTRQSGVPSRFSGSGSGTDFTLTISSLQPEDVATYYCQQYYDVLMNMFGGGTKLEIK
In the case of B2, the Kd in [1] was 0.038 µM; in [2], 0.037 µM; in assay [3], 0.011 µM.

B3: C1.861.hu61 (antibody, V domains shown)
VH: EVQLVESGGGLIQPGGSLRLSCAVSGFSLTSSGVTWVRQPPGKGLEWIAAISSGGNIYYNSAVKSRLTISRDTSKNTVYLQMNSLRAEDTAVYFCTRARGTTTAYVMDAWGQGTTVTVSS
VL: DVQLTQSPSSLSASVGDRVTITCKSSQSLLYSGNQKNYLAWYQQKPGKSPKLLIYWASTRQSGVPSRFSGSGSGTDFTLTISSLQPEDVATYYCQQYYDVLMNMFGGGTKLEIK
As to B3, the Kd worked out at 0.218 µM in assay [1] and 0.135 µM in [2].

B4: C1.773 (antibody, V domains shown)
VH: EIQLAQSGPELVKPGASVKMSCKASGYSFIGYFMNWVKQSHGKSLEWIGRINPYNGDTFYNQKFKGKATLTVDKSSSTAHMELRSLTSEDSALYYCTRSGWGYDVYSFDYWGQGTLVTVSS
VL: DIQMTQTPSSLSASLGDRVTISCRASQDISNYLNWYQQKPDGTVKLLIYYTSRLHSGVPSRFSGSGSGTDYSLTISNLEQEDIATYFCQQGNTLPWTFGGGTKLEIK
For the molecule B4, the Kd in assay [4] came to 0.0046 µM; in assay [5], 0.0037 µM; in assay [6] it was 0.0019 µM; in assay [7], 0.0027 µM; in [8], 0.0065 µM; in assay [9], 0.0059 µM. The Kd was determined as 0.0127 µM in [10], 0.004 µM in [3], 0.0191 µM in assay [11] and 0.0025 µM in [12].

B5: C1.831.hu41 (antibody, V domains shown)
VH: EVQLQESGPGLVKPSETLSLTCTVSGFSLTSQGVSWVRQPPGKGLEWIAAISSGGNIYYNSVLKSRLTISRDTSKNQVSLKLSSVTAADTAVYYCTRERGWNYPFITSGYYFDYWGQGTLVTVSS
VL: DIQLTQSPSSLSASVGDRVTITCKAGQNINNYLAWYQQKPGKAPKLLIYNANSLQTGIPSRFSGSGSGTDYTLTISSLQPEDFATYYCQQYNSWYTFGQGTKLEIK
As for B5, the values for the Kd in [1] and in assay [2] were 0.021 µM and 0.02 µM, respectively.

B6: C1.831.hu11 (antibody, V domains shown)
VH: EVQLQESGPGLVKPSETLSLTCTVSGFSLTSNGVSWVRQPPGKGLEWIAAISSGGNIYYNSVLKSRLTISRDTSKNQVSLKLSSVTAADTAVYYCTRERGWNYPFITNGYYFDYWGQGTLVTVSS
VL: DIQLTQSPSSLSASVGDRVTITCKAGQNINNYLAWYQQKPGKAPKLLIYNANSLQTGIPSRFSGSGSGTDYTLTISSLQPEDFATYYCQQYNSWYTFGQGTKLEIK
For the molecule B6, the Kd was 0.021 µM in [1], 0.027 µM in [2] and 0.011 µM in assay [3].

B7: C1.505 (antibody, V domains shown)
VH: EVQLTESGPGLVQPSQTLSLTCTVSGFSLTSNGVSWVRLPPGKGLEWIAAISSGGNIYYNSALKSRLSISRDTSKSQVFLKMNSLQTEDTAIYFCTRERGWNYPGITNGYYFDYWGQGASVTVSS
VL: DIVLTQSPSLLSASVGDRVILSCKAGQKINNYLAWYQQKLGEAPKLLIYNANSLQTGIPSRFSGSGSGTDYTLTISSLQPEDVATYFCQQYNSWYTFGAGTKLEIK
For B7, the values for the Kd in [6], in assay [8] and in assay [12] were 0.0352 µM, 0.0812 µM and 0.0071 µM, respectively.

B8: C1.831 (antibody, V domains shown)
VH: EVQLTESGPGLVQPSQTLSLTCTVSGFSLTSNGVSWVRQPPGKGLEWIAAISSGGNIYYNSVLKSRLSISRDTSKSQVFLKMSSVQTEDTAIYFCTRERGWNYPFITNGYYFDYWGQGVMVTVSS
VL: EIMLTQSPSLLSASVGDRVTLSCKAGQNINNYLAWYQQKLGEAPKLLIYNANSLQTGIPSRFSGSGSGTDYTLTISSLQPEDVATYFCQQYNSWYTFGAGTKLEIK
As to B8, the results for the Kd in [6] and in [7] were 0.0114 µM and 0.0087 µM, respectively.

B9: C1.851.hu15 (antibody, V domains shown)
VH: EVQLQESGPGLVKPSETLSLTCTVSGFSLTNNGVSWIRQPPGKGLEWIAAISSGGNIYYNSAFKSRLTISRDTSKNQVSLKLSSVTAADTAVYYCARHRGYYGYNWGYFDYWGQGTLVTVSS
VL: DVVMTQAPSSLSASLGERISLTCRASQDIYGSLNWFQQKPDGTIKLLIYGTSSLDSGVPKRFSGSRSGSDYSLTISSLESEDFADYYCLQYASSPYTFGGGTKLEIK
In the case of B9, the equilibrium dissociation constant (Kd) in [13] was 0.119 µM; in assay [14] it was 0.21 µM.

B10: C1.835 (antibody, V domains shown)
VH: EVQLLESGPGLVQPSQTLSLTCTVSGFSLTNNGVSWVRQPPGKGLEWVAAMSSGGNIYYNSAFKSRLSISRHTSKSQVLLKMNSLQTEDTAMYFCARHRGYYGYNWGYFDYWGQGVMVTVSS
VL: NIQLTQSPSLLSASVGDRVTLSCKGSQNIYNYLAWYQQKLGEAPKLLIYKTNSLQTDIPSRFSGSGSGTDYTLTISSLHSEDLATYYCCQYNNGYTFGAGTKLELK
On to B10, for which the Kd in assay [6] worked out at 0.144 µM; in assay [7] it was 0.575 µM.

B11: C1.827 (antibody, V domains shown)
VH: EVQLVESGPGLVQPSQTLSLTCTVSGFSLTNNGVSWVRQPPGKGLEWIAAISNGGNIYHNSALKSRLSISRNTAKSQVLLKMNSLQTEDTAMYFCARHRGYYGYNWGYFDYWGQGASVTVSS
VL: NIQVTQSPSLLSASVGDRVTLSCKGSQNIYNYLAWYQQKLGEAPKLLIYKTNSLQTGIPSRFSGSGSGTDYTLTISSLHSEDLATYYCCQYNNGYTFGAGTKLELK
With B11, the Kd in assay [6] worked out at 0.134 µM; in assay [7], 0.0673 µM.

B12: C1.863 (antibody, V domains shown)
VH: EVQRKESGPGLVQPSQTLSLTCTVSGFSLTNNGVSWVRQPPGKGLEWIAAISSGGSIYYNSAFKSRLSISRITSKSQVLLKMNSLQTEDTAMYFCARHRGYYGYNWGYFDYWGQGVMVTVSS
VL: NIQMTQSPSLLSASVGDRVTLSCKGSQNIYNYLAWYQQKLGEAPKLLIYKTSSLQAGIPSRFSGSGSDTDYTLTISSLHSEDLATYYCCQYNNGYTFGAGTKLEIK
Regarding B12, the values for the Kd in [4] and in [5] were 0.0273 µM and 0.0117 µM, respectively.

B13: C1.787a (antibody, V domains shown)
VH: EVQLTESGPGLVQPSQTLSLTCTVSGFSLTSNGVSWVRQPPGKGLEWIAAISSGGSTYYNSAFKSRLSISRHTSKSQVLLNMNSLQTEDTAMYFCARHRGYYWSNWGYFDYWGQGVMVTVSS
VL: NIQLTQSPSLLSASVGDRVTLSCKGSQNINNYLAWYQQKLGEAPKLLIYKTNSLQTGIPSRFSGSGSGTDYTLTLSSLHSEDLATYYCCQYNDGYTFGAGTKLELK
B13: the Kd in assay [4] was found to be 0.0276 µM; in assay [5], 0.0078 µM; in assay [12] it was 0.0043 µM.

B14: C1.844.hu21 (antibody, V domains shown)
VH: EVQLVESGGGLIQPGGSLRLSCAVSGFSLTSNGVIWVRQPPGKGLEWIAAISSGGNIYYNSGLKSRLTISRDTSKNTVYLQMNSLRAEDTAVYYCTRARGTTTAYVMDAWGQGTLVTVSS
VL: DIVMTQSPDSLAVSLGERATINCKSSQSLLYSVNQKNYLAWYQQKPGQSPKLLIYWASTRQSGVPDRFSGSGSGTDFTLTISSLQAEDVAVYYCQQYYDTLMKMFGAGTKLELK
Regarding B14, the figures for the Kd in assay [1], in assay [2] and in assay [3] were 0.103 µM, 0.083 µM and 0.011 µM, respectively.

B15: C1.861 (antibody, V domains shown)
VH: EVQLKESGPGLVQPSQTLSLTCTVSGFSLTSNGVTWVRQPPGKGLEWIAAISSGGNIYYNSAVKSRLSISRDTSKSQVFLKMNSLQTEDTAIYFCTRARGTTTAYVMDAWGQGASVTVSS
VL: DVVLTQSPSSLAVSAGETVTINCKSSQSLLYSGNQKNYLAWYQQKPGQSPKLLIYWASTRQSGVPDRFIGSGSGTDFTLTISSVQAEDLAIYYCQQYYDVLMNMFGAGTKLEIK
As to B15, the Kd came out at 0.028 µM in assay [4], 0.0147 µM in assay [5] and 0.0601 µM in [11].

One may read the Kd as the free concentration of one partner at which half of the binding sites on the other are occupied at equilibrium, for simple one-to-one binding.
